“Also recorded” adds a separate entry of the source. Where a SMILES comes first, the peptide text is derived from it. The star is where a group is joined. Cholyl = C[C@H](CCC(=O)*)[C@H]1CC[C@H]2[C@@H]3[C@H](O)C[C@@H]4C[C@H](O)CC[C@]4(C)[C@H]3C[C@H](O)[C@]12C
Experiments:
EL4 cells = test: Cytochrome C cytosolic delivery, cell death (annexin V binding) by flow cytometry; format: cell-based
Protocol: Cytochrome C is a protein that is normally entrapped in the mitochondria but its release into the cytosol in known to induce cell death. An experiment was performed in which EL4 cells were incubated with recombinant cytochrome C either alone (FIG. 8A) or mixed with CA-SV40 NLS (47 μM) (FIG. 8B). Successful delivery of cytochrome C to the cytosol in its active form was assessed by measuring cell death (annexin V binding) via flow cytometry.

WT MSCs = test: Antigen cross-presentation assay on wild-type MSCs with B3Z cells; format: cell-based, mouse; settings: WT MSCs pulsed with OVA with or without conjugate
Protocol: In order to generate Bone marrow (BM)-derived mouse MSCs, the femurs of 6-8-week-old female Balb/c or C57BL/6 mice were isolated and flushed with Alpha Modification of Eagle's Medium (AMEM) supplemented with 10% FBS and 50 U/mL Penicillin-Streptomycin in a 10 cm cell culture dish, then incubated at 37° C. Two days later, non-adherent cells were removed and the media replaced every 3 to 4 days until plastic-adherent cells reached 80% confluency. The generated cells were detached using 0.05% trypsin and expanded until a uniform MSC population was obtained. The generated MSCs were validated for their innate phenotype by flow-cytometry for the expression of CD44, CD45, CD73, and CD90. The cells were frozen in liquid nitrogen until use.
To assess cross-presentation assay, 25×10^3 cells MSCs were seeded per well in 24-well plate then pulsed with steroid acid peptide-conjugated for 6 h admixed with OVA. At the end of the pulsing period, the cells were washed to remove excess antigen then 5×10^4 B3Z cells. The cells were incubated for 17-19 hours prior to their lysis and incubation for another 4-6 hours at 37° C. with a CPRG solution. The optical density signal was detected at wavelength 570 using a SynergyH1™ microplate reader (Biotek, Winooski, VT, United States).
To determine whether a similar effect occurs in wild type (WT) (i.e., non-engineered) MSCs, BM-derived MSCs (Example 1) were used instead in the same cross presentation assay with B3Z responder cells.

[1] = Intrinsic tryptophan fluorescence (ITF) after thermal stress; format: physicochemical; settings: 80° C., ten minutes, 0.8 mg/mL in PBS
Protocol: An Applied Photophysics (Leatherhead, Surrey, UK) Chirascan™ Q100 circular dichroism (CD) spectrometer was used for intrinsic tryptophan fluorescence (ITF) analysis and a VWR digital heatblock (Radnor, PA) was used for dry block temperature incubations. The Chirascan™ Q100 autosampler rack cooling system was used for all 4° C. incubations. Data was analyzed using MATLAB™ software (Natick, MA). Briefly, samples were removed from storage at −20° C. and allowed to equilibrate to room temperature. Samples were then diluted to 0.8 mg/mL in PBS from stock concentrations in the range of 4 to 5 mg/mL. Diluted samples were then analyzed for ITF without exposure to thermal stress (Native) or after ten minutes of thermal stress by dry block incubation. An aliquot of each diluted sample was incubated at 4° C., a second aliquot was incubated at 37° C., while a third aliquot was incubated at 80° C. BSA, diluted to 0.8 mg/mL, was included with the samples under each of the thermal conditions described above. All samples were re-equilibrated to room temperature after incubation. ITF Analysis was performed in […] by excitation at 280 nm with an emission scan range of 200-600 nm with a bandwidth of 1.0 nm, a Time-per point of 1 s, and a Step of 0.5. The triplicate spectra were blank subtracted, averaged, and converted from units of mdeg to relative fluorescence intensity using MATLAB software. […]

DC2.4 cells = test: eGFP-Gal3 assessment of damaged endosomes by microscopy; format: cell-based, murine; settings: 0.1 mg/mL cargo, 3 h, 37° C.
Protocol: For this assay, 15×10^3 DC2.4 cells were seeded on a sterile cover slide in a 24-well plate. Two days following transfection of DC2.4 cells with the eGFP-hGal3 mammalian expression vector, 0.1 mg/mL of cargo was added to cells then incubated for 3 h at 37° C. The cells were then washed twice to remove excess protein prior to being mounted on a slide. The slides were viewed by fluorescent microscopy (Nikon, Eclipse™ Ti2-U) and the results analyzed using the ImageJ™ software.
A GFP-galectin-3 (GFP-Gal3) based detection system was utilized to explore the effect on endosomal membranes following intracellular delivery of steroid acid-peptide-conjugated cargoes. […] When expressed under normal conditions, Gal3 is evenly distributed across the cytosol but disruption of endosomal membranes allows Gal3 to access and bind luminal glycoproteins. We thus transiently transfected the murine dendritic cell line DC2.4 with a construct expressing Gal3 fused to enhanced green fluorescent protein (eGFP-Gal3). Two days later, DC2.4 cells were incubated with 0.1 mg/mL of either unconjugated OVA cargo or [CA-SV40]-OVA conjugated cargo for 3 h at 37° C. and the cells were observed by fluorescent microscopy.

[2] = test system: primary bone marrow-derived DCs; test: DQ OVA intracellular degradation/processing, flow cytometry; format: cell-based, mouse; settings: primary BMDCs, six hours
Protocol: Mouse bone marrow derived DCs (BMDCs) were generated by flushing the whole marrow from mouse femurs using RPMI™ 1640 supplemented with 10% fetal bovine serum (FBS), 50 U/mL Penicillin-Streptomycin, 2 mM L-glutamine, 10 mM HEPES, 1% MEM Non-essential Amino Acids, 1 mM Sodium Pyruvate, 0.5 mM beta-mercaptoethanol. Following red blood cell lysis, cells were then cultured in media supplemented with 50 ng/mL murine recombinant GM-CSF. The media was changed on days 2, 4, 6 and 8. On day 9, the media was replaced to include recombinant murine GM-CSF and LPS from Escherichia coli 0111 (1 ng/mL) to stimulate DC maturation. Mature DCs were assessed by flow cytometry for their surface expression of CD3, CD19, NK1.1, CD11c, CD80, CD86, and I-A^b. To evaluate OVA degradation/processing, cells were incubated with 10 µg/mL DQ™ OVA (with or without steroid acid-peptide modification) at 37° C. 30 minutes later, cells were washed, and regular media was added. […] Fluorescence was monitored by analyzing the cells by flow cytometry. […] Briefly, while a strong fluorescence quenching effect is observed when the DQ™ OVA substrate remains intact, hydrolysis of DQ™ OVA into single dye-labeled peptides by proteases relieves this quenching, thereby producing brightly fluorescent products. […] Cells were then collected and fluorescence was monitored by flow cytometry.

## cytochrome C
EL4 cells; recombinant cytochrome C alone
  cell death, cytochrome C alone: did not trigger cell death

## CC(C)[C@H](NC(=O)[C@H](CCCCN)NC(=O)[C@H](CCCNC(=N)N)NC(=O)[C@H](CCCCN)NC(=O)[C@H](CCCCN)NC(=O)[C@H](CCCCN)NC(=O)[C@@H]1CCCN1C(=O)CNC(=O)[C@H](Cc1ccc(O)cc1)NC(=O)CNC(=O)[C@H](CS)NC(=O)CC[C@@H](C)[C@H]1CC[C@H]2[C@@H]3[C@H](O)C[C@@H]4C[C@H](O)CC[C@]4(C)[C@H]3C[C@H](O)[C@]12C)C(=O)NCC(=O)NCC(=O)O [CA-SV40] (Cholyl-CGYGPKKKRKVGG-OH)
EL4 cells; CA-SV40 NLS conjugate alone
  cell death, conjugate alone: 19%

B1: OVA: albumin from chicken egg white, unconjugated cargo/antigen (protein, UniProt P01012 2-386, looked up)
Ovalbumin: GSIGAASMEFCFDVFKELKVHHANENIFYCPIAIMSALAMVYLGAKDSTRTQINKVVRFDKLPGFGDSIEAQCGTSVNVHSSLRDILNQITKPNDVYSFSLASRLYAEERYPILPEYLQCVKELYRGGLEPINFQTAADQARELINSWVESQTNGIIRNVLQPSSVDSQTAMVLVNAIVFKGLWEKAFKDEDTQAMPFRVTEQESKPVQMMYQIGLFRVASMASEKMKILELPFASGTMSMLVLLPDEVSGLEQLESIINFEKLTEWTSSNVMEERKIKVYLPRMKMEEKYNLTSVLMAMGITDVFSSSANLSGISSAESLKISQAVHAAHAEINEAGREVVGSAEAGVDAASVSEEFRADHPFLFCIKHIATNAVLFFGRCVSP
WT MSCs
  OVA cross presentation by WT MSCs (B3Z): poorly cross presented
[1]
  ITF spectral change after thermal stress (unfolding): complete denaturation
DC2.4 cells
  eGFP-Gal3 marker pattern (endosomal membrane disruption): remained cytosolic; also recorded: diffuse cytosolic pattern

B2: DQ™ OVA: fluorogenic substrate DQ ovalbumin (protein, UniProt P01012 2-386, looked up)
Ovalbumin: GSIGAASMEFCFDVFKELKVHHANENIFYCPIAIMSALAMVYLGAKDSTRTQINKVVRFDKLPGFGDSIEAQCGTSVNVHSSLRDILNQITKPNDVYSFSLASRLYAEERYPILPEYLQCVKELYRGGLEPINFQTAADQARELINSWVESQTNGIIRNVLQPSSVDSQTAMVLVNAIVFKGLWEKAFKDEDTQAMPFRVTEQESKPVQMMYQIGLFRVASMASEKMKILELPFASGTMSMLVLLPDEVSGLEQLESIINFEKLTEWTSSNVMEERKIKVYLPRMKMEEKYNLTSVLMAMGITDVFSSSANLSGISSAESLKISQAVHAAHAEINEAGREVVGSAEAGVDAASVSEEFRADHPFLFCIKHIATNAVLFFGRCVSP
modifications: DQ fluorophore label
notes: fluorogenic substrate DQ ovalbumin
[2]
  DQ OVA fluorescence (intracellular degradation/processing): not observed

B3: 50×-cOVA: OVA conjugated with a 50× molar excess of CA-SV40 NLS, about eight moieties per OVA (conjugate, UniProt P01012 2-386, looked up)
Ovalbumin: GSIGAASMEFCFDVFKELKVHHANENIFYCPIAIMSALAMVYLGAKDSTRTQINKVVRFDKLPGFGDSIEAQCGTSVNVHSSLRDILNQITKPNDVYSFSLASRLYAEERYPILPEYLQCVKELYRGGLEPINFQTAADQARELINSWVESQTNGIIRNVLQPSSVDSQTAMVLVNAIVFKGLWEKAFKDEDTQAMPFRVTEQESKPVQMMYQIGLFRVASMASEKMKILELPFASGTMSMLVLLPDEVSGLEQLESIINFEKLTEWTSSNVMEERKIKVYLPRMKMEEKYNLTSVLMAMGITDVFSSSANLSGISSAESLKISQAVHAAHAEINEAGREVVGSAEAGVDAASVSEEFRADHPFLFCIKHIATNAVLFFGRCVSP
modifications: about eight CA-SV40 NLS conjugates
notes: OVA conjugated with a 50× molar excess of CA-SV40 NLS, about eight moieties per OVA
[1]
  ITF spectral change after thermal stress (unfolding): partial reduction in peak intensity

B4: [CA-SV40]-OVA: OVA covalently conjugated to CA-SV40 NLS moieties via SM(PEG)4 cross-linker (conjugate, UniProt P01012 2-386, looked up)
Ovalbumin: GSIGAASMEFCFDVFKELKVHHANENIFYCPIAIMSALAMVYLGAKDSTRTQINKVVRFDKLPGFGDSIEAQCGTSVNVHSSLRDILNQITKPNDVYSFSLASRLYAEERYPILPEYLQCVKELYRGGLEPINFQTAADQARELINSWVESQTNGIIRNVLQPSSVDSQTAMVLVNAIVFKGLWEKAFKDEDTQAMPFRVTEQESKPVQMMYQIGLFRVASMASEKMKILELPFASGTMSMLVLLPDEVSGLEQLESIINFEKLTEWTSSNVMEERKIKVYLPRMKMEEKYNLTSVLMAMGITDVFSSSANLSGISSAESLKISQAVHAAHAEINEAGREVVGSAEAGVDAASVSEEFRADHPFLFCIKHIATNAVLFFGRCVSP
modifications: CA-SV40 NLS peptides via SM(PEG)4
notes: OVA covalently conjugated to CA-SV40 NLS moieties via SM(PEG)4 cross-linker
DC2.4 cells
  eGFP-Gal3 marker pattern (endosomal membrane disruption): became punctate; also recorded: punctate pattern

B5: [CA-SV40]-DQ™ OVA: DQ OVA conjugated with a molar excess of CA-SV40 NLS steroid acid-peptide moieties (conjugate, UniProt P01012 2-386, looked up)
Ovalbumin: GSIGAASMEFCFDVFKELKVHHANENIFYCPIAIMSALAMVYLGAKDSTRTQINKVVRFDKLPGFGDSIEAQCGTSVNVHSSLRDILNQITKPNDVYSFSLASRLYAEERYPILPEYLQCVKELYRGGLEPINFQTAADQARELINSWVESQTNGIIRNVLQPSSVDSQTAMVLVNAIVFKGLWEKAFKDEDTQAMPFRVTEQESKPVQMMYQIGLFRVASMASEKMKILELPFASGTMSMLVLLPDEVSGLEQLESIINFEKLTEWTSSNVMEERKIKVYLPRMKMEEKYNLTSVLMAMGITDVFSSSANLSGISSAESLKISQAVHAAHAEINEAGREVVGSAEAGVDAASVSEEFRADHPFLFCIKHIATNAVLFFGRCVSP
modifications: DQ fluorophore label; CA-SV40 NLS conjugates
notes: DQ OVA conjugated with a molar excess of CA-SV40 NLS steroid acid-peptide moieties
[2]
  DQ OVA fluorescence (intracellular degradation/processing): sharp increase

Reference: US20250049914A1, “STEROID ACID-PEPTIDE BASED INTRACELLULAR CARGO DELIVERY” (DEFENCE THERAPEUTICS INC., priority 2021, published 2025)
